Assay results reported in PMC11645210 (Cell, 2024).

Experiments:
Assay in all cases: SPR
Conditions in all cases: both partners purified
SARS-CoV-2 XBB.1 RBD = SARS-CoV-2 XBB.1 RBD (SARS-CoV-2 Omicron XBB.1, strain)
SARS-CoV-2 XBB.1.5 RBD = SARS-CoV-2 XBB.1.5 RBD (SARS-CoV-2, UniProt P0DTC2)
SARS-CoV-2 CH.1.1 RBD = SARS-CoV-2 CH.1.1 RBD (SARS-CoV-2 Omicron CH.1.1, strain)
SARS-CoV-2 BA.1 RBD = SARS-CoV-2 BA.1 RBD (SARS-CoV-2, UniProt P0DTC2)
SARS-CoV-2 BA.2 RBD = SARS-CoV-2 BA.2 RBD (SARS-CoV-2 Omicron BA.2, strain)
SARS-CoV-2 BA.2.75.2 RBD = SARS-CoV-2 BA.2.75.2 RBD (SARS-CoV-2 Omicron BA.2.75.2, strain)
SARS-CoV-2 BQ.1.1 RBD = SARS-CoV-2 BQ.1.1 RBD (SARS-CoV-2, UniProt P0DTC2)

B1: VIR-7229 Fab fragment (Fab, V domains shown)
VH: EVQLVESGGSVVQPGRALRLSCAASGITFSSFGMYWVRQAPGKGLEWLGYIAYDGSDTYYADSVKGRFTISRDNSKNTLYLQMNSLRIEDTAVYYCAKDYYPLLSYYYGLDVWGQGTTVTVSS
VL: QSVLTQPRSVSGSPGQSVTISCTGTSSDVGAYNYVSWYQQHPGKAPKFMIYDVDQRPSGVPDRFSGSKSGNTASLIISGLQAEDEADYYCSSYAGSYIWVFGGGTQLTVL
notes: source: ExpiCHO (IgG1); Fab by fragmentation of the IgG with the FabLACTICA Fab kit
B1 was tested, and the Kd (SARS-CoV-2 XBB.1 RBD) was 210 pM, the koff (SARS-CoV-2 XBB.1 RBD) was 0.000108 s⁻¹ and the kon (SARS-CoV-2 XBB.1 RBD) was 524000 M⁻¹ s⁻¹. It also gave a Kd (SARS-CoV-2 XBB.1.5 RBD) of 60 pM, a koff (SARS-CoV-2 XBB.1.5 RBD) of 4.09e-05 s⁻¹ and a kon (SARS-CoV-2 XBB.1.5 RBD) of 752000 M⁻¹ s⁻¹. It also gave a Kd (SARS-CoV-2 CH.1.1 RBD) of 120 pM, a koff (SARS-CoV-2 CH.1.1 RBD) of 6.63e-05 s⁻¹ and a kon (SARS-CoV-2 CH.1.1 RBD) of 586000 M⁻¹ s⁻¹. The Kd (SARS-CoV-2 BA.1 RBD) was 434 pM, the koff (SARS-CoV-2 BA.1 RBD) was 0.000124 s⁻¹ and the kon (SARS-CoV-2 BA.1 RBD) was 285000 M⁻¹ s⁻¹. The Kd (SARS-CoV-2 BA.2 RBD) was 396 pM, the koff (SARS-CoV-2 BA.2 RBD) was 9.72e-05 s⁻¹ and the kon (SARS-CoV-2 BA.2 RBD) was 245000 M⁻¹ s⁻¹. It also gave a Kd (SARS-CoV-2 BA.2.75.2 RBD) of 284 pM, a koff (SARS-CoV-2 BA.2.75.2 RBD) of 0.000117 s⁻¹ and a kon (SARS-CoV-2 BA.2.75.2 RBD) of 431000 M⁻¹ s⁻¹. It also gave a Kd (SARS-CoV-2 BQ.1.1 RBD) of 99.3 pM, a koff (SARS-CoV-2 BQ.1.1 RBD) of 5.63e-05 s⁻¹ and a kon (SARS-CoV-2 BQ.1.1 RBD) of 582000 M⁻¹ s⁻¹.
